Measured values from patent US7244836 (Genentech, dated 2007).

T1: TNF Receptor Associated Factor 1, purified from CT6 cells (murine, UniProt P39428 1-409, N-terminally blocked (so in the source); nature of the block not stated))
T1 construct: also called TRAF1; protein band at 45-50 kd
T1 sequence: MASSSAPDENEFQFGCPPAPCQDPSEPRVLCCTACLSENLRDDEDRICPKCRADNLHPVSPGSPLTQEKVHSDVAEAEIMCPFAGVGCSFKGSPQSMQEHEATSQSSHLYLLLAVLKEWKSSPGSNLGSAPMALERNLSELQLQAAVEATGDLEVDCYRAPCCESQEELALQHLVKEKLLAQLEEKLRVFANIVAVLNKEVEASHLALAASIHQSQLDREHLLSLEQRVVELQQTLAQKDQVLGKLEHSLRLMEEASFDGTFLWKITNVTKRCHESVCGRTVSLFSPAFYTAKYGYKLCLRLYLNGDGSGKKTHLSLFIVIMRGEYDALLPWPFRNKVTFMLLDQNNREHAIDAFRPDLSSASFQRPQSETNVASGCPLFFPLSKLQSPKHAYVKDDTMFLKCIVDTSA

T2: GST-TRAF2 fusion protein (murine, UniProt P39429 1-501)
T2 construct: Expressed in E. coli in the presence of 1 mM ZnCl2; also called GST-TRAF2 fusion protein beads; not shown: glutathione S-transferase as encoded by vector pGEX-2TK, with the vector's linker
T2 sequence: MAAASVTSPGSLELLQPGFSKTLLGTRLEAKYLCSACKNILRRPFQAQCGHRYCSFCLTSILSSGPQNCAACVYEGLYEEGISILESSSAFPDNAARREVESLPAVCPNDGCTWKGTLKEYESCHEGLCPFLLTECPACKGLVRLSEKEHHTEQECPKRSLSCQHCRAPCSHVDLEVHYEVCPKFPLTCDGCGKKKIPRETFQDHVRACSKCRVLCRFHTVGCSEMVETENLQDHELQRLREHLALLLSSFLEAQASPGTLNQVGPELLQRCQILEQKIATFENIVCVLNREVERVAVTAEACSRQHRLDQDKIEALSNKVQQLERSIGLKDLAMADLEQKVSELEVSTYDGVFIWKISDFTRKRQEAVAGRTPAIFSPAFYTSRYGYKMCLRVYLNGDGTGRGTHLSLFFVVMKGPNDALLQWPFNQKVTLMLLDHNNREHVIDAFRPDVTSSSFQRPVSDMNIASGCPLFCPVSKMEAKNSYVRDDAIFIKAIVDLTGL

T3: GAL4(TA)-TRAF1 co-expressed with directly expressed TRAF2 (yeast; murine, UniProt P39428 2-409; P39429 1-501, limits assumed)
T3 construct: also called GAL4(TA)-TRAF1 + TRAF2; pPC86TRAF1 with pPCTRAF2
T3 sequence 1: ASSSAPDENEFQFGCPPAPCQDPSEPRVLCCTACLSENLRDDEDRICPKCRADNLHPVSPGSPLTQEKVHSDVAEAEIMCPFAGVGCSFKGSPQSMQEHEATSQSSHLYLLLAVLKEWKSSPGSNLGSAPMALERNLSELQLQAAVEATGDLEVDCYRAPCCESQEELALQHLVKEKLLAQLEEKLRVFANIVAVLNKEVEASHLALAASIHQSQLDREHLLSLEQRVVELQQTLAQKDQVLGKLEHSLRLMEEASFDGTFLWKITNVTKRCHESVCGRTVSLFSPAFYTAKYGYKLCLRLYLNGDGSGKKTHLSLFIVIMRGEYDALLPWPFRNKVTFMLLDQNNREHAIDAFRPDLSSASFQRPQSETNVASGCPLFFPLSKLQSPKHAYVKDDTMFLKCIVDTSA
T3 sequence 2: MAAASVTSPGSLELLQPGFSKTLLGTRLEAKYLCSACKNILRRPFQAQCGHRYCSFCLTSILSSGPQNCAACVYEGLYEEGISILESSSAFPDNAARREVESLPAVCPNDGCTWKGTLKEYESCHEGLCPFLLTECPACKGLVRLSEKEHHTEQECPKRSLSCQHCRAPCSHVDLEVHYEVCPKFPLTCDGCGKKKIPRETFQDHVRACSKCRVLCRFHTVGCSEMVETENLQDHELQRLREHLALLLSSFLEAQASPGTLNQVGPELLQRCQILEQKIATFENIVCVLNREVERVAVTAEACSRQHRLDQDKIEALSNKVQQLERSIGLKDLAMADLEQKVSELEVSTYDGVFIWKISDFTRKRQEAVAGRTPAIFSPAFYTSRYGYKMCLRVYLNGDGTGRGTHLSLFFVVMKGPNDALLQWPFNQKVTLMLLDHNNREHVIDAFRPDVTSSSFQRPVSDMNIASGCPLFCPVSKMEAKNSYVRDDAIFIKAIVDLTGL


Key:
[1] = biological target: T1, TNF Receptor Associated Factor 1, …; experiment: band eluted specifically from the GST-hTNF-R2icd affinity column and identified by peptide sequencing; association may be indirect (through TRAF2)
Description: For large scale purification of hTNF-R2icd associated factors 60 l of CT6 cells (3×10^10 cells) were harvested and washed twice with cold PBS. All subsequent operations were carried out at 4° C. The cells were lysed by adding 120 ml of 0.1% NP40 lysis buffer containing 100 mM NaCl and rocked gently for 30 min. Insoluble material was removed by centrifugation for 10 min at 10,000×g. The supernatant was then centrifuged at 100,000×g for 1 hr and dialyzed against lysis buffer containing 500 mM NaCl. All subsequent purification steps were carried out in lysis buffer containing 500 mM NaCl. The cell lysate was passed through a 15 ml glutathione-agarose GST-hTNF-R2icd(-37) fusion protein preabsorption column. The flow-through was applied to a 0.3 ml Affigel10/15 GST-hTNF-R2icd fusion protein affinity column. For control, the lysate was run through a similar Affigel10/15 GST-hTNF-R2icd(-37) fusion protein affinity column in parallel. After extensive washing, proteins bound to the resins were eluted with five column volumes of ImmunoPure Gentle Ag1Ab Elution Buffer (Pierce) containing, 0.1 M DTT, precipitated with Methanol/Chloroform and resuspended in SDS sample buffer containing 5% SDS. One tenth of the material was separated by SDS-PAGE under reducing conditions and visualized by silver staining (FIG. 9).

GST-TRAF2 fusion protein = biological target: T2, GST-TRAF2 fusion protein; experiment: GST-TRAF2 beads incubated with 293/TNF-R2 cell lysate; SDS-PAGE and Western blot with anti-hTNF-R2 antibody
Description: FIG. 16. […] Reactions were analyzed by SDS-PAGE and Western blot analysis using anti-human TNF-R1 monoclonal antibody 986 (0.5 μg/ml) and anti-human TNF-R2 monoclonal antibody 1036 (0.5 μg/ml). An arrow indicates the 75-80 kd hTNF-R2 band that is coprecipitated specifically with the GST-TRAF2 fusion protein. Molecular weight markers are indicated on the right in kd.
An expression vector encoding a GST-TRAF2 fusion protein was constructed. The TRAF2 coding region was amplified from pPC86TRAF2 by PCR with Pfu DNA polymerase as described above using the oligonucleotide primers 5'-[…] TTGT-3' (SEQ. ID. NO: 53) and 5'-[…]-3' (SEQ. ID. NO: 54). The amplified 1.6 kb DNA fragment was blunt-ended using *E. coli* DNA polymerase I, digested with BamHI and cloned into BamHI/SmaI-digested pGEX-2TK vector. The GST-TRAF2 fusion protein was expressed in the presence of 1 mM ZnCL_2 and purified as described above. […] Primary antibodies directed against the extracellular domains of hTNF-R2 and hTNF-R1 (as a control) were used at a concentration of 0.5 µg/ml and the secondary sheep anti-mouse horseradish peroxidase conjugate (Amersham) at a dilution of 1:6000.

[2] = biological target: T3, GAL4(TA)-TRAF1 co-expressed with …; experiment: yeast three-component assay with TRAF2 (no NLS) expressed directly; growth on trp- leu- his- medium with 20 mM 3-aminotriazole
Description: HF7c cells were sequentially transformed with plasmids (see text) encoding the indicated GAL4 DNA-binding domain (DB) fusion proteins, the GAL4 transcriptional activation domain (TA) TRAF1 fusion protein, and TRAF2 or TRAF2 fused to the simian virus 40 large tumor antigen nuclear localization signal (NLS). The final transformation mixtures were plated onto synthetic dextrose plates lacking trp, leu, his and containing 20 mM 3-aminotriazole. Plus signs indicate growth of transformed yeast colonies on the respective plates. *See Table 2.

| Binder | binding result [2] | further results |
| --- | --- | --- |
| GST-hTNF-R2icd fusion protein (other, human, UniProt P20333 288-461, looked up, domain: intracellular domain; Expressed in E. coli; also called pGST-hTNF-R2icd; wild type (wt) GST-hTNF-R2icd; not shown: glutathione S-transferase as encoded by vector pGEX-2TK (Pharmacia), with the vector's linker up to the BamHI site) KKKPLCLQREAKVPHLPADKARGTQGPEQQHLLITAPSSSSSSLESSASALDRRAPTRNQPQAPGVEASGAGEARASTGSSDSSPGGHGTQVNVTCIVNVCSSSDHSSQCSSQASSTMGDTDSSPSESPKDEQVPFSKEECAFRSQLETPETLLGSTEEKPLPLGVPDAGMKPS |  | binding result [1]: binds |
| human type 2 TNF receptor, wild type full length (receptor, UniProt P20333 23-461, looked up, whole, on cells; Whole receptor made by transfected cells, assayed after detergent lysis, not on intact cells; also called hTNF-R2; 75-80 kd hTNF-R2) LPAQVAFTPYAPEPGSTCRLREYYDQTAQMCCSKCSPGQHAKVFCTKTSDTVCDSCEDSTYTQLWNWVPECLSCGSRCSSDQVETQACTREQNRICTCRPGWYCALSKQEGCRLCAPLRKCRPGFGVARPGTETSDVVCKPCAPGTFSNTTSSTDICRPHQICNVVAIPGNASMDAVCTSTSPTRSMAPGAVHLPQPVSTRSQHTQPTPEPSTAPSTSFLLPMGPSPPAEGSTGDFALPVGLIVGVTALGLLIIGVVNCVIMTQVKKKPLCLQREAKVPHLPADKARGTQGPEQQHLLITAPSSSSSSLESSASALDRRAPTRNQPQAPGVEASGAGEARASTGSSDSSPGGHGTQVNVTCIVNVCSSSDHSSQCSSQASSTMGDTDSSPSESPKDEQVPFSKEECAFRSQLETPETLLGSTEEKPLPLGVPDAGMKPS |  | binding result (GST-TRAF2 fusion protein): binds |

Continued, in another order:

| binding result [2] | Binder | further results |
| --- | --- | --- |
| binds | GAL4 DNA-binding domain fused to the intracellular domain of the murine TNF-R2 (other, yeast;murine, UniProt P04386 1-147, looked up, also called GAL4(DB)-mTNF-R2icd; pPC97-mTNF-R2icd) MKLLSSIEQACDICRLKKLKCSKEKPKCAKCLKNNWECRYSPKTKRSPLTRAHLTEVESRLERLEQLFLLIFPREDLDMILKMDSLQDIKALLTGLFVQDNVNKDAVTDRLASVETDMPLTLRQHRISATSSSEESSNKGQRQLTVSKKKPSCLQRDAKVPHVPDEKSQDAVGLEQQHLLTTAPSSSSSSLESSASAGDRRAPPGGHPQARVMAEAQGFQEARASSRISDSSHGSHGTHVNVTCIVNVCSSSDHSSQCSSQASATVGDPDAKPSASPKDEQVPFSQEECPSQSPCETTETLQSHEKPLPLGVPDMGMKPSQAGWFDQIAVKVA |  |
| binds | GAL4 DNA-binding domain fused to the intracellular domain of human TNF-R2 (other, yeast;human, UniProt P04386 1-147, looked up, also called GAL4(DB)-hTNF-R2icd; pPC97-hTNF-R2icd) MKLLSSIEQACDICRLKKLKCSKEKPKCAKCLKNNWECRYSPKTKRSPLTRAHLTEVESRLERLEQLFLLIFPREDLDMILKMDSLQDIKALLTGLFVQDNVNKDAVTDRLASVETDMPLTLRQHRISATSSSEESSNKGQRQLTVSKKKPLCLQREAKVPHLPADKARGTQGPEQQHLLITAPSSSSSSLESSASALDRRAPTRNQPQAPGVEASGAGEARASTGSSDSSPGGHGTQVNVTCIVNVCSSSDHSSQCSSQASSTMGDTDSSPSESPKDEQVPFSKEECAFRSQLETPETLLGSTEEKPLPLGVPDAGMKPS |  |
